Measurements reported in article PMC13379236 (2026).

B1: C-terminal FLAG-tagged WT ZYG11B [human] / Strep-tagged NLRP1, C-terminal fragment generated by 3C cleavage (begins at G131) [human] (parent complex)
chain 1: PEDQAGAAMEEASPYSLLDICLNFLTTHLEKFCSARQDGTLCLQEPGVFPQEVADRLLRTMAFHGLLNDGTVGIFRGNQMRLKRACIRKAKISAVAFRKAFCHHKLVELDATGVNADITITDIISGLGSNKWIQQNLQCLVLNSLTLSLEDPYERCFSRLSGLRALSITNVLFYNEDLAEVASLPRLESLDISNTSITDITALLACKDRLKSLTMHHLKCLKMTTTQILDVVRELKHLNHLDISDDKQFTSDIALRLLEQKDILPNLVSLDVSGRKHVTDKAVEAFIQQRPSMQFVGLLATDAGYSEFLTGEGHLKVSGEANETQIAEALKRYSERAFFVREALFHLFSLTHVMEKTKPEILKLVVTGMRNHPMNLPVQLAASACVFNLTKQDLAAGMPVRLLADVTHLLLKAMEHFPNHQQLQKNCLLSLCSDRILQDVPFNRFEAAKLVMQWLCNHEDQNMQRMAVAIISILAAKLSTEQTAQLGTELFIVRQLLQIVKQKTNQNSVDTTLKFTLSALWNLTDESPTTCRHFIENQGLELFMRVLESFPTESSIQQKVLGLLNNIAEVQELHSELMWKDFIDHISSLLHSVEVEVSYFAAGIIAHLISRGEQAWTLSRSQRNSLLDDLHSAILKWPTPECEMVAYRSFNPFFPLLGCFTTPGVQLWAVWAMQHVCSKNPSRYCSMLIEEGGLQHLYNIKDHEHTDPHVQQIAVAILDSLEKHIVRHGRPPPCKKQPQARLN
chain 2: GSERRVLRQLPDTSGRRWREISASLLYQALPSSPDHESPSQESPNAPTSTAVLGSWGSPPQPSLAPREQEAPGTQWPLDETSGIYYTEIREREREKSEKGRPPWAAVVGTPPQAHTSLQPHHHPWEPSVRESLCSTWPWKNEDFNQKFTQLLLLQRPHPRSQDPLVKRSWPDYVEENRGHLIEIRDLFGPGLDTQEPRIVILQGAAGIGKSTLARQVKEAWGRGQLYGDRFQHVFYFSCRELAQSKVVSLAELIGKDGTATPAPIRQILSRPERLLFILDGVDEPGWVLQEPSSELCLHWSQPQPADALLGSLLGKTILPEASFLITARTTALQNLIPSLEQARWVEVLGFSESSRKEYFYRYFTDERQAIRAFRLVKSNKELWALCLVPWVSWLACTCLMQQMKRKEKLTLTSKTTTTLCLHYLAQALQAQPLGPQLRDLCSLAAEGIWQKKTLFSPDDLRKHGLDGAIISTFLKMGILQEHPIPLSYSFIHLCFQEFFAAMSYVLEDEKGRGKHSNCIIDLEKTLEAYGIHGLFGASTTRFLLGLLSDEGEREMENIFHCRLSQGRNLMQWVPSLQLLLQPHSLESLHCLYETRNKTFLTQVMAHFEEMGMCVETDMELLVCTFCIKFSRHVKKLQLIEGRQHRSTWSPTMVVLFRWVPVTDAYWQILFSVLKVTRNLKELDLSGNSLSHSAVKSLCKTLRRPRCLLETLRLAGCGLTAEDCKDLAFGLRANQTLTELDLSFNVLTDAGAKHLCQRLRQPSCKLQRLQLVSCGLTSDCCQDLASVLSASPSLKELDLQQNNLDDVGVRLLCEGLRHPACKLIRLGLDQTTLSDEMRQELRALEQEKPQLLIFSRRKPSVMTPTEGLDTGEMSNSTSSLKRQRLGSERAASHVAQANLKLLDVSKIFPIAEIAEESSPEVVPVELLCVPSPASQGDLHTKPLGTDDDFWGPTGPVATEVVDKEKNLYRVHFPVAGSYRWPNTGLCFVMREAVTVEIEFCVWDQFLGEINPQHSWMVAGPLLDIKAEPGAVEAVHLPHFVALQGGHVDTSLFQMAHFKEEGMLLEKPARVELHHIVLENPSFSPLGVLLKMIHNALRFIPVTSVVLLYHRVHPEEVTFHLYLIPSDCSIRKAIDDLEMKFQFVRIHKPPPLTPLYMGCRYTVSGSGSGMLEILPKELELCYRSPGEDQLFSEFYVGHLGSGIRLQVKDKKDETLVWEALVKPGDLMPATTLIPPARIAVPSPLDAPQLLHFVDQYREQLIARVTSVEVVLDKLHGQVLSQEQYERVLAENTRPSQMRKLFSLSQSWDRKCKDGLYQALKETHPHLIMELWEKGSKKGLLPLSS

Variants of: B1
Test: coIP with western blot quantification; HEK293T cells, transfected for 48 h, with 3C protease; read off a plot

Row | Variant | ratio to parent
1 | chain 1 E643K | ~0.5
2 | chain 1 E569A | ~0.05
3 | chain 1 D434K | ~0.94
4 | chain 1 D525A | ~0.05
5 | chain 1 F515A | ~0.85

Other lines, results leading:

Row | ratio to parent | Variant
6 | ~0.05 | chain 1 W521A
7 | ~1.1 | chain 1 K514E
8 | ~0.51 | chain 1 Y684A
9 | ~0.27 | chain 1 R465A
10 | ~0.08 | chain 1 N566A
